These results are taken from the DeepSol protein solubility set.

A short description of the series: soluble on expression in E. coli; label from the status in PepcDB or PDB records.
On to “MKETRDLETLSVNAIRFLAIDAVEKARSGHPGMPMGMAPLAYLLFREVMRHNPLDPDWPDRDRFVLSAGHGSMLLYAVLHLTGYDLPLEELKSFRQWGSKTPGHPERGHTPGVEVTTGPLGQGISTAVGLALAERKLAAEFNRPGHVVVDHYTYVLASDGDLMEGVSGEAASLAGHWGLSKLIVFWDDNRISIDGPTDLAFTEDVLARYRAYGWQTLRVEDVNDLEALRKAIKLAKLDERPTLIAVRSHIGFGSPKQDSAKAHGEPLGPEAVEATRRNLGWPYPPFVVPEEVYRHMDMREKGRAWQEAWEKALEAYARAYPDLHQELMRRLRGELPPLPEEPPSFDKPIATRAASGRALNLLAPRLPELLGGSADLTPSNNTKAEGMEDFSRANPLGRYLHFGVREHAMGAILNGLNLHGGYRAYGGTFLVFSDYMRPAIRLAALMGVPTVFVFTHDSIALGEDGPTHQPVEHLMSLRAMPNLFVIRPADAYETFYAWLVALRRKEGPTALVLTRQAVPLLSPEKARGLLRGGYVLEDVEEPQGVLVATGSEVHLALRAQALLREKGVRVRVVSLPSFELFAAQPEAYRKEVLPPGLPVVAVEAGASLGWERYAHKVVALDRFGASAPYPEVYERLGFTPERVAEAFLSLV”, for which the “soluble on expression in E. coli” value is “soluble”.

With “MKEVLRVRTTKHTSIVNITQQVDQVVKKSGVREGICVVYTPHTTACVFVNEGADPDVVRDIVYSLEKLIPWNDPSYAHMEGNSAAHIRSAIIGNSRVIPIIDGELALGTWESIFLADFDGPRERKVIVVVLGEKLEHHHHHH”, the “soluble on expression in E. coli” value is listed as “not soluble”.

As to “MKFAIFVNTTREKALELARELTAWLDARSIDYVFDPQSAKALGCGKWEEKADLSQHCDAFVALGGDGTLLLASHYSRSKPVVGINVGDLGFLTEFSPDEMWVAMDHLVSGNYSIHTRSQLEATLESGESLTSLNDVIFEKGSAARRLPAFTILLDDEMLGSYRADGIIIATSTGSTAYSMSAGGPIIAPKSNVFVITPICPHMLTVRPIVISDDKTIKISVDSQSGEFPLKMDGIQKKLLAPGEVVTVKKSPHHINLVANEKRNYCEILRKKLLWSHEHPTGELEHHHHHH”, the “soluble on expression in E. coli” value is “not soluble”.

“MKFALQINEGPYQHQASDSAYQFAKAALEKGHEIFRVFFYHDGVNNSTRLTTPPQDDRHIVNRWAELAEQYELDMVVCVAAAQRRGIVDEGEASRNGKDATNIHPKFRISGLGQLVEAAIQADRLVVFGD”: the “soluble on expression in E. coli” value is on record as “soluble”.

Turning to “MKFAVVVFPGSNCDVDMYHAIADELGEEVEYVWHDEDDLDRFDAILLPGGFSYGDYLRSGAIARFSKVMAAVKKAAEAGKPVLGVCNGFQILLEAGLLPGAMRRNQGLKFICRPVQLTVENHETIFTSAYEKGEVITIPIAHGEGNYYCDEQTLERLVENRQIVFRYHGENPNGSLADIAGIVNERGNVLGMMPHPERAVDALLGSADGLKLFRSIVNYWRETHVVTA”, the “soluble on expression in E. coli” value is on record as “not soluble”.

In the case of “MKFGWIKTTGNDLEERMESVKDALESSIPGIIAEKEEISSVRELGNIKIVSDNLDADVVLINKGEDLEILKSAKLSGKETGVYVVINTKEDEVYATDVSKLDFVDYVVLEGSDWTIIPLENIIADLFSEEIKIVSVVTNVKDAEAAYEILEKGVDGVVLIPKDINEVKDFSKLIERMNSESVKLDYATVTKIEPVGSGDRVCIDTCSMMEMGEGMLIGSYSRGMFLVHSETVENPYVATRPFRVNAGPVHAYILCPENKTKYLSDLKAGDKVLVVNKNGETREAIIGRVKIEKRPLFLVEAEYNGENLRTILQNAETIRLVGEDGKPVSVVDLKVGTKVLIKPDENARHFGMAIKETIIEKLEHHHHHH”, the “soluble on expression in E. coli” value was “soluble”.

As to “MKFQWIGVLVFIGIVNCLISSQKLTVKENEERLKSCGNTFLPIPSINQTGKGFGFFNDKTYTYNSKSGWLLLAGHKNRSTRVYATAFPISEYHILISSRVMLTAEHKWIMNGKPFDKNNCSGGRHLDVPRDVLDNILFWYGKKPKKADISKARMFFACDNQDLKAYPVLIELNKTSKRPWAFNGVPCLADETTSSKLGDVVHFYGYSDYDLLHHKLLIKAVKDGGICTETYYTEEVGGPLVQNVSGKATVIGLKAPGSRENCELFYDLSKLQKEICDYSGVCGYEKPTLTTEPTPVTTEKSTVSTTISTSLETTIMQASSASPTSIKPSTTTEPSPLQASSKPATEPLLRPESTRRASSSASSKPEVQTTIPTEIRTSSLPTPFLKTSTTVTTTTPEPATVDYGDDHDMIGLDDEYGDESNKGVGKIDRIVGFFVLLLVIE”, the “soluble on expression in E. coli” value is reported as “not soluble”.

On to “MKFTWYGQSCFLIETSRNKKILLDPFNNSIGYPTFKGEADIITVSHHHFDHDFIDCVTNSPKVIDKPGDYKIDDITIKGIPSFHDNVHGAARGENTIFLFNIDGFNVCHLGDIGYVLSDLEVKSLGNVDVLMIPVGGNFTIDGAEAGQLCKKINSNIILPMHYKTTFTILPLEGAEKFIMSMKNAERLQSNVLTLDTKTNEKNQVKIFSIKLEHHHHHH”, for which the “soluble on expression in E. coli” value is “not soluble”.

In the case of “MKGFGMFRFRRTFVPQIDMRNCGVAALASVAKYYGSDYSLAHLRELAKTNKEGTTALGLVEAAKKIGFETRAIKAEMSLFEMEDVPYPFIAHVNKDGKLQHYYVIYKSTKDYLIIGDPDPSVKVTKMTKERFEKEWTGVTLFMGPEPS”, the “soluble on expression in E. coli” value was “not soluble”.

Consider “MKGNALCTGEPVMTIETRGGGSEDIAVLPLDPTGNITRLFIRERCNDSSDPECKTGQWRLGSVDISRENTPASTRYAWRPGNNASEDDFEPLGMSLVPGNTPGEGTLFVIDIARPQSVRIWQLDISGGEITKATLATPADTQTGARLTAANSLQAVRNDDSRSFHLTITRFDEYGLLPFRPTPWPALVRINNGVIQPPPAQDFRNANGIIRPCAGCDLVIASYWERRLRFVSKENGEIGEYASAELPIRPDNLRLDGERILIAGQRRVDLTALNLLVSPHIPSPSGVYAIDTRSLGPDTVPTLLWEGGWKHGHSVATAVALPGNRLAIGQINTPGILIADCSPLEHHHHHH”, for which the “soluble on expression in E. coli” value was “not soluble”.

For “MKGNRQRIQPKNIFQAVIDSPLSDQEKEVLTFLYQPIVGANAFSLYWLLLSETTDSEENGSLFHADLISLLDLSCQQLEEACYKLEGIGLLETYKKTDRELGDCYLYYLKAPETAARFFKDEVLALVLFNRVGQRKFDQLVQKFQPHPTKTEGYQNVSASFQEVYAFKEEQIVSEANRLTTIQETFSQKEKSKKISVSTDSFDWHYFVEGLHRLGLQLPEDEASFQEEVYVFHQLYGINELDMVDFASKSFDYYTSRILPKELVRTIHQAFDPDKKPQSTNVVTNKQAQLTVEEQQTYRYNALKMNGFSELDIQMIMDSEKNPPIQYLEALKNSRGGYTTPQERSLVKYLVAKSGLPTSVINILINYVYNIQQQPTLKAEYVNRIANEWGQSGIHSPEKAIEHVRELAKQSQTKQKQRQQNYSGKRQTVRQERLPEWADQPNDETKLSPEEQAELDRQIQEFLNQGGDQ”, the “soluble on expression in E. coli” value is recorded as “not soluble”.

Turning to “MKGRLLDAVPLSSLTGVGAALSNKLAKINLHTVQDLLLHLPLRYEDRTHLYPIGELLPGVYATVEGEVLNCNISFGGRRMMTCQISDGSGILTMRFFNFSAAMKNSLAAGRRVLAYGEAKRGKYGAEMIHPEYRVQGDLSTPELQETLTPVYPTTEGVKQATLRKLTDQALDLLDTCAIEELLPPELSQGMMTLPEALRTLHRPPPTLQLSDLETGQHPAQRRLILEELLAHNLSMLALRAGAQRFHAQPLSANDTLKNKLLAALPFKPTGAQARVVAEIERDMALDVPMMRLVQGDVGSGKTLVAALAALRAIAHGKQVALMAPTELLAEQHANNFRNWFAPLGIEVGWLAGKQKGKARLAQQEAIASGQVQMIVGTHAIFQEQVQFNGLALVIIDEQHRFGVHQRLALWEKGQQQGFHPHQLIMTATPIPRTLAMTAYADLDTSVIDELPPGRTPVTTVAIPDTRRTDIIDRVHHACITEGRQAYWVCTLIEESELLEAQAAEATWEELKLALPELNVGLVHGRMKPAEKQAVMASFKQGELHLLVATTVIEVGVDVPNASLMIIENPERLGLAQLHQLRGRVGRGAVASHCVLLYKTPLSKTAQIRLQVLRDSNDGFVIAQKDLEIRGPGELLGTRQTGNAEFKVADLLRDQAMIPEVQRLARHIHERYPQQAKALIERWMPETERYSNA”, the “soluble on expression in E. coli” value was “soluble”.

Turning to “MKGYGEMAKNNPTRITAEPGKQEIIITREFDAPRELVFKAFTDPDLYTQWIGPRGFTTALKIFEPKNGGSWQYIQKDPEGNEYAFHGVNHDVTEPERIISTFEFEGLPEKGHVILDTARFEALPGDRTKLTSHSVFQTIEDRDGMLQSGMEEGINDSYERLDELLEKMKKLEHHHHHH”, the “soluble on expression in E. coli” value is listed as “soluble”.

Take “MKGYIHVYTGNGKGKTTAALGLATRAACAGLKVFFGQFLKGRETSELKISEFLPNFEIVQYGTPEFIVGNPSEEQIKKAKSGLADAKERLVSEKYDVVVLDELCVAIHLGLFSKEEIEDLLNVKPENVELVITGRYAPEWLIEKADLVTEMKEVKHYYQKGVVARKGIEY”: the “soluble on expression in E. coli” value is “soluble”.

In the case of “MKHIHIIGIGGTFMGGLAAIAKEAGFEVSGCDAKMYPPMSTQLEALGIDVYEGFDAAQLDEFKADVYVIGNVAKRGMDVVEAILNLGLPYISGPQWLSENVLHHHWVLGVAGTHGKTTTASMLAWVLEYAGLAPGFLIGGVPENFGVSARLPQTPRQDPNSQSPFFVIEADEYDTAFFDKRSKFVHYRPRTAVLNNLEFDHADIFADLGAIQTQFHYLVRTVPSEGLIVCNGRQQSLQDTLDKGCWTPVEKFGTEHGWQAGEANADGSFDVLLDGKTAGRVKWDLMGRHNRMNALAVIAAARHVGVDIQTACEALGAFKNVKRRMEIKGTANGITVYDDFAHHPTAIETTIQGLRQRVGGARILAVLEPRSNTMKLGTMKSALPVSLKEADQVFCYAGGVDWDVAEALAPLGGRLNVGKDFDAFVAEIVKNAEVGDHILVMSNGGFGGIHGKLLEALR”, the “soluble on expression in E. coli” value was “soluble”.

Regarding “MKHQHQHQHQHQHQQPLQEEEQAHATSLPPRASSPPQILPQLSPEQLGMIEKLVAAQQQCNRRSFSDRLRVTPWPMAPDPHSREARQQRFAHFTELAIVSVQEIVDFAKQLPGFLQLSREDQIALLKTSAIEVMLLETSRRYNPGSESITFLKDFSYNREDFAKAGLQVEFINPIFEFSRAMNELQLNDAEFALLIAISIFSADRPNVQDQLQVERLQHTYVEALHAYVSIHHPHDRLMFPRMLMKLVSLRTLSSVHSEQVFALRLQDKKLPPLLSEIWDVHE”, the “soluble on expression in E. coli” value is “soluble”.

For “MKHVPPTVLVWFRNDLRLHDHEPLHRALKSGLAITAVYCYDPRQFAQTHQGFAKTGPWRSNFLQQSVQNLAESLQKVGNKLLVTTGLPEQVIPQIAKQINAKTIYYHREVTQEELDVERNLVKQLTILGIEAKGYWGSTLCHPEDLPFSIQDLPDLFTKFRKDIEKKKISIRPCFFAPSQLLPSPNIKLELTAPPPEFFPQINFDHRSVLAFQGGETAGLARLQDYFWHGDRLKDYKETRNGMVGADYSSKFSPWLALGCLSPRFIYQEVKRYEQERVSNDSTHWLIFELLWRDFFRFVAQKYGNKLFNRGGLLNKNFPWQEDQVRFELWRSGQTGYPLVDANMRELNLTGFMSNRGRQNVASFLCKNLGIDWRWGAEWFESCLIDYDVCSNWGNWNYTAGIGNDARDFRYFNIPKQSQQYDPQGTYLRHWLPELKNLPGDKIHQPWLLSATEQKQWGVQLGVDYPRPCVNFHQSVEARRKIEQMGVIA”, the “soluble on expression in E. coli” value was “soluble”.

As to “MKIAKFTRINAHQVQNCNNEKIAHERKMEKVFEFLAEDKKTFEASNSFERTLIFCKHDKSAMAALLTLYDSKTIFGTFSEYLITNDKTVLERERVQVNNGEKMLAICNMDFMDDFQLGLAKHYIFLDFPLKIIGIKKMLDRLNTMAQQSEQVIDIDFLTTNMDARIYQEALNMEMTMRGSQVPKWLTELVNGSSELPEDPDVIFVRTCKPDLEPLTAKPAKLPSPRQPESKPSNEASSSQLEPTSASQPPSRVDQILKSRSGLPTKDADSSSEVAPRKRKPKSPAFDIYNMKRQPDGTFLIPSHVMGFCNEDLSEDDEEPDPEYDSEEEYNWMYKLDVW”, the “soluble on expression in E. coli” value is reported as “not soluble”.
